Test results as given in article PMC9047656 (ACS Nano, 2022).

Target: the molecule itself
Assay: SEC-MALS

B1: canavalin (natural protein, Canavalia ensiformis (jack bean), UniProt P50477 27-445, looked up)
chain: HSGHSGGEAEDESEESRAQNNPYLFRSNKFLTLFKNQHGSLRLLQRFNEDTEKLENLRDYRVLEYCSKPNTLLLPHHSDSDLLVLVLEGQAILVLVNPDGRDTYKLDQGDAIKIQAGTPFYLINPDNNQNLRILKFAITFRRPGTVEDFFLSSTKRLPSYLSAFSKNFLEASYDSPYDEIEQTLLQEEQEGVIVKMPKDQIQEISKHAQSSSRKTLSSQDKPFNLRSRDPIYSNNYGKLYEITPEKNSQLRDLDILLNCLQMNEGALFVPHYNSRATVILVANEGRAEVELVGLEQQQQQGLESMQLRRYAATLSEGDIIVIPSSFPVALKAASDLNMVGIGVNAENNERNFLAGHKENVIRQIPRQVSDLTFPGSGEEVEELLENQKESYFVDGQPRHIDAGGKARRAHLPNLFRTFY
  stoichiometry N: 3
